What was measured:
[1] = MCAO stroke model: PEG-A1 penetration into the brain (Western blot); assay type: in vivo, mouse; conditions: 60 minutes MCAO, 24 hours after stroke, perfused
Experimental: Western blotting: Western blotting on retina or brain was conducted as described in Fouda, A Y, et al., Cell death & Disease, 9:1001 (2018). Membranes were probed with anti-PEG (RevMAb Biosciences, 1:1000) and anti-albumin (Bethyl Laboratories, 1:5000). Uncropped blots are included in FIG. 22.
MCAO model: C57BL/6J mice (12-16 week-old male, 25-30 g) were subjected to middle cerebral artery occlusion (MCAO) using the intraluminal filament technique (Docol 602145) for 60-minutes followed by reperfusion as described in Eldahshan, et al., American Journal of Physiology Heart and Circulatory Physiology, 316:H1192-h201 (2019). […] A heating pad was used to maintain body temperature at 37° C. […] Sham surgery involved all the regular surgery steps except the filament insertion. Mice were deeply anesthetized at 24 hours and sacrificed by trans-cardial perfusion with PBS then brains were collected and sectioned for triphenyl tetrazolium chloride (TTC) staining or homogenized in RIPA lysis buffer for western blotting.
PEG-A1 treatment in acute retinal and brain injury mouse models: A pharmaceutical grade of PEG-A1 was provided as a kind gift from Bio-Cancer Treatment International Limited (BCT, Hong Kong). […] Methoxy polyethylene glycol propionic acid (MW 5,000—Sigma, Catalog number 88908-1G-F) was used as vehicle control. […]

[2] = system: WT pups subjected to oxygen-induced retinopathy (OIR); experiment: OIR mouse model: Western blotting and immunolabelling of retina (A1, cleaved PARP, calbindin horizontal cells); assay type: in vivo
Experimental: Western blotting analysis: Retina lysates were homogenized in RIPA buffer supplemented with protease and phosphatase inhibitors. Samples (20 μg protein) were run on 10% sodium dodecyl sulfate-polyacrylamide gel electrophoresis, transferred to nitrocellulose membrane and reacted with primary antibody followed by horseradish peroxidase-linked secondary antibody and enhanced chemiluminescence (Amersham Pharmacia). β-actin (mouse monoclonal antibody, 1:5000, Sigma-Aldrich) or GAPDH served as a loading control. The following primary antibodies were used: GFAP, PARP, A1.
Immunofluorescence labelling: PFA fixed eyeballs were washed in PBS and cryoprotected. Cryostat sections (15 μm) were permeabilized in 1% Triton (20 min) and blocked in 10% normal goat serum containing 1% BSA (one hour). Sections were then incubated overnight in primary antibodies at 4° C. On day two, the sections were incubated at room temperature for 1 hour in fluorescent conjugated secondary antibodies (Life Technologies), washed in PBS and mounted with Vectashield (Vector Laboratories)
PBS was used as vehicle control. Pups were anesthetized before treatment by intraperitoneal (i.p.) injection of ketamine/xylazine mixture. Intravitreal injections were performed using a 36-gauge NanoFil needle mounted to a 10-μL Hamilton syringe (World Precision Instruments). Two treatment strategies were employed. […]

[3] = system: primary rat retinal mixed neurons; experiment: Primary retinal mixed neurons subjected to OGD/R, LDH release assay; conditions: 6 hours OGD and 18 hours reperfusion, PEG-A1 1 μg/mL at reoxygenation
Experimental: Retinas from ten pups were collected and washed twice with ice-cold 1×PBS. They were digested with 0.5% trypsin for 3-4 min at 37° C., followed by trypsin inactivation with the culture medium, DMEM/F12 (Gibco, Grand Island, N.Y.) plus 10% FBS and 1% Penicillin-Streptomycin (P/S) solution (Invitrogen, Grand Island, N.Y.). The retina tissue was mechanically dissociated by pipetting several times until cells were dispersed. Cells were then filtered through a 40 μm nylon-mesh filter, collected by centrifugation at 1000 rpm for 10 min, re-suspended in culture medium, and plated in 6 or 12 well-cell culture plates (Corning, Corning, N.Y.) coated with Poly-D-lysine hydrobromide (PDL, Sigma) at a density of 0.5×10^6 cells/mL. The plates were maintained in a humidified CO2 incubator at 37° C. and 5% CO2. At days 1, 2, and 3 in vitro (DIV), half of the medium was aspirated and replaced with Neurobasal A medium containing 1×B-27 (GIBCO), 1× glutaMAX (GIBCO) and 1% P/S. Experiments were conducted at DIV 6.

[4] = Pharmacokinetic profile of PEG-A1 in mouse vitreous by arginase activity after intravitreal administration; assay type: in vivo; conditions: adult mice, intravitreal 6.8 ng in 1 μL
Source text: Based on the results of the above studies showing detrimental effects of A1 hemizygous deletion on vascular repair in A1^+/− mice and the findings that increases in A1 expression accompany the beneficial effects of A2 deletion on the vascular injury, it was hypothesized that treatment with A1 could be useful in limiting OIR-induced retinal injury. To test this, a PEG-A1 was used. […] Adult mice were used in this experiment to get higher vitreous yield for ease of processing.

B1: PEG-A1: recombinant human arginase (rhArg) covalently attached to methoxy polyethylene glycol (mPEG-SPA; MW 5,000) via succinamide propionic acid (SPA) linker (protein, UniProt P05089 1-322, looked up)
Arginase-1: MSAKSRTIGIIGAPFSKGQPRGGVEEGPTVLRKAGLLEKLKEQECDVKDYGDLPFADIPNDSPFQIVKNPRSVGKASEQLAGKVAEVKKNGRISLVLGGDHSLAIGSISGHARVHPDLGVIWVDAHTDINTPLTTTSGNLHGQPVSFLLKELKGKIPDVPGFSWVTPCISAKDIVYIGLRDVDPGEHYILKTLGIKYFSMTEVDRLGIGKVMEETLSYLLGRKKRPIHLSFDVDGLDPSFTPATGTPVVGGLTYREGLYITEEIYKTGLLSGLDIMEVNPSLGKTPEEVTRTVNTAVAITLACFGLAREGNHKPIDYLNPPK
modifications: mPEG-SPA 5 kDa conjugate
notes: recombinant human arginase (rhArg) covalently attached to methoxy polyethylene glycol (mPEG-SPA; MW 5,000) via succinamide propionic acid (SPA) linker
- anti-PEG immunoreactivity in stroked brains (Western blot, also anti-A1) [1]: strong band
- OIR-induced calbindin-positive horizontal cell loss ([2]; P17, compared to vehicle treatment): significantly rescued
- cleavage of the pro-apoptotic marker PARP (Western blot) ([2]; P17 OIR retinal lysates): significantly reduced
- cell death (LDH release) [3]: increased cell death
- vitreous arginase activity ([4]; day 3 post injection): three-fold
- vitreous arginase activity ([4]; day 6): returned to baseline
- vitreous arginase activity as compared to vehicle treatment ([4]; immediately after administration): about six-fold increase

Reference: patent publication US20210340516A1, “COMPOSITIONS CONTAINING ARGINASE 1 FOR THE TREATMENT OF NEUROVASCULAR AND RETINAL VASCULAR DISORDERS” (Augusta University Research Institute, Inc., priority 2020, published 2021)
